Results from US20220275053A1, “MODIFIED […] PEPTIDE LIGANDS” (BicycleTx Limited, priority 2019, published 2022).
*1 amine or outer side, *2 acyl side, *3 side chain or, on linkers, in order; H or OH if unused. Bridges are numbered along the chain shown (N, C = ends). [ ]: non-standard residue; d: D form. TATA = O=C(CC[*:1])N1CN(C(=O)CC[*:2])CN(C(=O)CC[*:3])C1; tBuAla = CC(C)(C)C[C@H](N)C(=O)O; Nle = CCCC[C@H](N)C(=O)O

Target: T1, CD137 (Homo sapiens, UniProt Q07011)
T1 construct: Human peripheral blood mononuclear cells (PBMCs) were isolated from buffy coats from two donors; endogenous in cells
Assay: Fluorescent multimers human T-cell competition (receptor occupancy) assay with BCY7340 as labelling reagent
Type: binding
Settings: unlabelled multimer titrated, 30 minutes at room temperature; 10 nM BCY7340 label; FIG. 5
Description: Human PBMCs were isolated from fresh buffy coats from two donors according to standard protocols. CD8+ T cells were then isolated from the PBMCs by negative magnetic bead selection with a MACS CD8+ T cell isolation kit (negative bead selection) according to the manufacturer's protocol (Miltenyi Biotec). Purified CD8+ T cells were then stimulated for 72 hours in plates coated with CD3 antibody (1 μg/ml) in R10 media (RPMI1640+10% FBS+1× Pen-Strep). Cells were then incubated with a range of concentrations of unlabelled CD137 multimer for 30 minutes at room temperature in 2% FBS. Cells were then washed and stained for FACS analysis. Briefly, cells were stained in 1× Live/Dead BV510 for 15 minutes, washed, and then surface stained with a primary antibody cocktail (CD8-BV785, CD3-BV605, and CD137-PECy5) that included a saturating concentration (10 nM) of BCY7340. Cells were incubated for 30 minutes at room temperature, washed, and fixed in 2% PFA. Cells were run on the BD FACSCelesta and FCS files were analyzed in FlowJo. Cells were gated on Single/Live/Lymphocytes/CD8+(or CD3+)/CD137+ or CD137−. The Alexa Fluor 488 geometric mean of the CD137+ population is shown.

T1 sequence (Q07011 24-255): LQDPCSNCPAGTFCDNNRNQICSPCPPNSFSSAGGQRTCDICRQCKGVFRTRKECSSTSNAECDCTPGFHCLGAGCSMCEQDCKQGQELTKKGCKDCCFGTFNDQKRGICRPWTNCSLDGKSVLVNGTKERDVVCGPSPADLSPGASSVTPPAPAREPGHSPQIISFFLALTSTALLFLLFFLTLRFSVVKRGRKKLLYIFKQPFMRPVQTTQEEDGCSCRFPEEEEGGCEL

“BCY8945: Non-modified CD137 multimer: 4 x BCY8927, hinge A, SA n=23, attachment Lys(PYA)3 (Ac-C[tBuAla]PK[dA]PYCFADPY[Nle]CA-NH2; linker 1-8-15 via TATA; not fully specified (residue 4); also: tetramer: 4 peptides on central hinge moiety A via spacer SA n=23)” was tested, and the “level of free/unbound CD137 receptor on human T cells (BCY7340 binding)” value was “dose responsive decrease in unbound CD137 receptor”.
